Reference: patent EP2373335B1 (Eli Lilly and Company, dated 2016)

T1: human ferroportin 1 (human, UniProt Q9NP59 1-571)
T1 sequence: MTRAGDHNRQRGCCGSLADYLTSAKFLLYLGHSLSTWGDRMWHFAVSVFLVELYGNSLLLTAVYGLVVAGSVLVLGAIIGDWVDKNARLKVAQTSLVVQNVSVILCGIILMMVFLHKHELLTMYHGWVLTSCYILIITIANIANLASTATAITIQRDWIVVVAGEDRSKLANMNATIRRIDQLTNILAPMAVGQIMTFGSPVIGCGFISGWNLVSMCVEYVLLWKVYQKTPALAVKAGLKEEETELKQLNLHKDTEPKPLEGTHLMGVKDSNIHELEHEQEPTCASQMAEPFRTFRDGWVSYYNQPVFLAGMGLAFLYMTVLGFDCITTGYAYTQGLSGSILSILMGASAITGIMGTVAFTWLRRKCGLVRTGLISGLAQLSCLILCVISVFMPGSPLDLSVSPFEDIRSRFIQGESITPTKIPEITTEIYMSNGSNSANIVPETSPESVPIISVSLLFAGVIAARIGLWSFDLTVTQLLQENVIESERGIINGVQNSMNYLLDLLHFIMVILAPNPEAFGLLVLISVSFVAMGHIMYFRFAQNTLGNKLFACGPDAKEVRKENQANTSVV

T2: FPN1-GFP (human, UniProt Q9NP59 1-571, A GFP reporter is fused to the C terminus of FPN1. Its letters are not given, so it is left out.)
T2 sequence: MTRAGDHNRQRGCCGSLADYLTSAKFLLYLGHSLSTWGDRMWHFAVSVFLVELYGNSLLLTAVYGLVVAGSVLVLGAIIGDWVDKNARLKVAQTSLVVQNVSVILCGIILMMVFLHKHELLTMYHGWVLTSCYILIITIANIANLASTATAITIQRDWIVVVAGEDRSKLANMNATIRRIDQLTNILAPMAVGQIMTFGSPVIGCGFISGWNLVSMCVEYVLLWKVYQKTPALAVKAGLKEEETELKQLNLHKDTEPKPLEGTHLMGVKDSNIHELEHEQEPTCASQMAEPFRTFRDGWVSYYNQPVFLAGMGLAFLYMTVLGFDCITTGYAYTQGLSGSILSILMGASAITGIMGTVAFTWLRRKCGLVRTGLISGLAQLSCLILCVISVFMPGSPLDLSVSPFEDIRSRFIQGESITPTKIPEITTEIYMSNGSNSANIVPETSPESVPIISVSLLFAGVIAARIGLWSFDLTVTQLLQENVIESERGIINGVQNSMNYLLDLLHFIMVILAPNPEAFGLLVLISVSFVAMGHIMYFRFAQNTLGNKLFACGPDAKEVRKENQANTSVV


Key:
human ferroportin 1 [1] = biological target: T1, human ferroportin 1; test: cell-based or functional assay
FPN1-GFP [2] = biological target: T2, FPN1-GFP; test: cell-based or functional assay
FPN1-GFP [3] = biological target: T2, FPN1-GFP; test: cell-based or functional assay; remark: listed apart in the source
FPN1-GFP [4] = biological target: T2, FPN1-GFP; test: SPR (Biacore T100) at 37 °C; FPN1-GFP captured on rabbit anti-GFP antibody; KD of Fab 1G9 against KD of Fab 34A9
human ferroportin 1 [5] = biological target: T1, human ferroportin 1; test: inhibition of 30 nM biotinylated hepcidin binding to FPN/293 cells, ELISA read-out; antibody at 125 nM; mean
human ferroportin 1 [6] = biological target: T1, human ferroportin 1; test: inhibition of 30 nM biotinylated hepcidin binding to FPN/293 cells, ELISA read-out; antibody at 2000 nM; mean
human ferroportin 1 [7] = biological target: T1, human ferroportin 1; test: inhibition of 30 nM biotinylated hepcidin binding to FPN/293 cells, ELISA read-out; antibody at 7.8 nM; mean
human ferroportin 1 [8] = biological target: T1, human ferroportin 1; test: inhibition of 30 nM biotinylated hepcidin binding to FPN/293 cells, ELISA read-out; antibody at 500 nM; mean
human ferroportin 1 [9] = biological target: T1, human ferroportin 1; test: inhibition of 30 nM biotinylated hepcidin binding to FPN/293 cells, ELISA read-out; antibody at 31.25 nM; mean

| Percent (%) Inhibition of Mature Human Hepcidin-induced Internalization and Degradation In Vitro; Mab at 7.4 nM (FPN1-GFP [2]) | Percent (%) Inhibition of Mature Human Hepcidin-induced Internalization and Degradation In Vitro; Mab at 22 nM (FPN1-GFP [2]) | Percent (%) Inhibition of Mature Human Hepcidin-induced Internalization and Degradation In Vitro; Mab at 67 nM (FPN1-GFP [2]) | Percent (%) Inhibition of Mature Human Hepcidin-induced Internalization and Degradation In Vitro; Mab at 200 nM (FPN1-GFP [2]) | Percent (%) Inhibition of Mature Human Hepcidin-induced Internalization and Degradation In Vitro; Mab at 600 nM (FPN1-GFP [2]) | Relative IC50 (FPN1-GFP [3]) | Top % Inhibition (hepcidin-25-induced internalization and degradation of FPN1-GFP) (FPN1-GFP [3]) | Absolute IC50 (FPN1-GFP [3]) | % Inhibition (human ferroportin 1 [5]) | % Inhibition (human ferroportin 1 [6]) | % Inhibition (human ferroportin 1 [7]) | % Inhibition (human ferroportin 1 [8]) | % Inhibition (human ferroportin 1 [9]) | EC50 (nM); inhibition of hepcidin induced ferritin increase in Caco-2 cells (human ferroportin 1 [1]) | Molecule | other results |
| --- | --- | --- | --- | --- | --- | --- | --- | --- | --- | --- | --- | --- | --- | --- | --- |
| – | – | – | – | – | – | – | – | – | – | – | – | – | – | Mouse IgG1, a negative control (antibody) | % Inhibition; ferritin in Caco-2 cells with 100 nM hepcidin; 6.25 µg/mL mIgG1 (human ferroportin 1 [1]): 0%; % Inhibition; ferritin in Caco-2 cells with 100 nM hepcidin; 12.5 µg/mL mIgG1 (human ferroportin 1 [1]): 0%; % Inhibition; ferritin in Caco-2 cells with 100 nM hepcidin; 25 µg/mL mIgG1 (human ferroportin 1 [1]): 7.2%; % Inhibition; ferritin in Caco-2 cells with 100 nM hepcidin; 50 µg/mL mIgG1 (human ferroportin 1 [1]): 0%; % Inhibition; ferritin in Caco-2 cells with 100 nM hepcidin; 100 µg/mL mIgG1 (human ferroportin 1 [1]): 3.5%; % Inhibition; ferritin in Caco-2 cells with 100 nM hepcidin; 200 µg/mL mIgG1 (human ferroportin 1 [1]): 11.6%; Ferritin (ng)/ protein (µg); Caco-2 cells with 100 nM hepcidin; 6.25 µg/mL mIgG1 (human ferroportin 1 [1]): 10.4 ng/µg; Ferritin (ng)/ protein (µg); Caco-2 cells with 100 nM hepcidin; 12.5 µg/mL mIgG1 (human ferroportin 1 [1]): 10 ng/µg; Ferritin (ng)/ protein (µg); Caco-2 cells with 100 nM hepcidin; 25 µg/mL mIgG1 (human ferroportin 1 [1]): 9.6 ng/µg; Ferritin (ng)/ protein (µg); Caco-2 cells with 100 nM hepcidin; 50 µg/mL mIgG1 (human ferroportin 1 [1]): 10.1 ng/µg; Ferritin (ng)/ protein (µg); Caco-2 cells with 100 nM hepcidin; 100 µg/mL mIgG1 (human ferroportin 1 [1]): 9.78 ng/µg; Ferritin (ng)/ protein (µg); Caco-2 cells with 100 nM hepcidin; 200 µg/mL mIgG1 (human ferroportin 1 [1]): 9.4 ng/µg |
| 4.8% | 14.1% | 23.6% | 30.8% | 39% | 58.9 nM | 55.2% | – | – | – | – | – | – | – | Mab 34A9 (antibody, mouse IgG1, kappa, V domains shown) VH: QVQLKQSGAELVRPGTSVKVSCKASGYAFTNFLIEWLKQRPGQGLEWIGTINPETGGTKYNEKFRGKATLTADKSSSTAYMQLNSLTSDDSAVYFCVREFFDYWGQGTSLTVSS VL: ETTVTQSPSYLAASPGETITINCRASKSISKYLAWFQEKPGKTNKLLIYAGSTLHSGIPSRFSGSGSGTDFTLTISSLEPEDFAMYYCQQHNEYPYTFGGGTKLELKR | – |
| 24.3% | 49.9% | 61.8% | 62.4% | 67.9% | 9.2 nM | 69% | 18.8 nM | – | – | – | – | – | – | Mab 1G9 (antibody, mouse IgG1, kappa, V domains shown) VH: QVQLKQSGAELVRPGTSVKVSCKASGYAFTSFLIEWLKQRPGQGLEWIGTINPRTGGTKYNEKFRGKATLTADKSSSTAYMQLNSLTSDDSAVYFCVREFFDYWGQGTSLTVSS VL: ETTVTQSPSYLAASPGETITINCRASKSISKYLAWFQEKPGKTNKLLIYAGSKLHSGIPSRFSGSGSGTDFTLTISSLEPEDFAMYYCFQHNEYPYTFGGGTKLELKR | – |
| – | – | – | – | – | – | – | – | – | – | – | – | – | – | Fab 1G9 (Fab, V domains shown, also called mouse 1G9; mouse Fab 1G9) VH: QVQLKQSGAELVRPGTSVKVSCKASGYAFTSFLIEWLKQRPGQGLEWIGTINPRTGGTKYNEKFRGKATLTADKSSSTAYMQLNSLTSDDSAVYFCVREFFDYWGQGTSLTVSS VL: ETTVTQSPSYLAASPGETITINCRASKSISKYLAWFQEKPGKTNKLLIYAGSKLHSGIPSRFSGSGSGTDFTLTISSLEPEDFAMYYCFQHNEYPYTFGGGTKLELK | fold improvement in binding affinity against Fab 34A9 (FPN1-GFP [4]): ~5 fold |
| – | – | – | – | – | 4.7 nM | 85.9% | 5.7 nM | 59.3% | 95.3% | 5.4% | 84.9% | 13.4% | 37 nM | Mab 4A10-3 (antibody, human IgG4 S228P, kappa, F234A L235A, V domains shown) VH: QVQLVQSGAEVKKPGSSVKVSCKASGYAFTSFLIEWVRQAPGQGLEWMGTSNPRTGGRKYKEKFRGRVTITADKSTSTAYMELSSLRSEDTAVYYCAREFFDYWGQGTTVTVSS VL: DIQMTQSPSSLSASVGDRVTITCRASKSISKYTAWYQQKPGKAPKLLIYAGSKLHWGVPSRFSGSGSGTDFTLTISSLQPEDFATYYCQQHNEYPYTFGGGTKVEIKR | – |
| 28.1% | 50.2% | 55.7% | 63.8% | 66.4% | 10.2 nM | 86.8% | 13.7 nM | – | – | – | – | – | 360 nM | Mab 3D8 (antibody, human IgG4 S228P, kappa, F234A L235A, V domains shown) VH: QVQLVQSGAEVKKPGSSVKVSCKASGYAFTSFLIEWVRQAPGQGLEWMGTSNPRTGGTKYKEKFRGRVTITADKSTSTAYMELSSLRSEDTAVYYCAREFFDYWGQGTTVTVSS VL: DIQMTQSPSSLSASVGDRVTITCRASKSISKYTAWYQQKPGKAPKLLIYAGSKLHSGVPSRFSGSGSGTDFTLTISSLQPEDFATYYCQQHNEYPYTFGGGTKVEIKR | – |
| – | – | – | – | – | 4.8 nM | 81.6% | 6.2 nM | 76.5% | 85.1% | -0.1% | 99.8% | 27.5% | 193 nM | Mab L2.2-4 (antibody, human IgG4 S228P, kappa, F234A L235A, V domains shown) VH: QVQLVQSGAEVKKPGSSVKVSCKASGYAFTSFLIEWVRQAPGQGLEWMGTSNPRTGGRKYKEKFRGRVTITADKSTSTAYMELSSLRSEDTAVYYCAREFFDYWGQGTTVTVSS VL: DIQMTQSPSSLSASVGDRVTITCRASKSISKYTAWYQQKPGKAPKLLIYAGSKLRSGVPSRFSGSGSGTDFTLTISSLQPEDFATYYCQQHNEYPYTFGGGTKVEIKR | – |
| – | – | – | – | – | 3.7 nM | 92.6% | 3.8 nM | 88.4% | 79.9% | 18.7% | 81.6% | 32.1% | 28 nM | Mab Combi11 (antibody, human IgG4 S228P, kappa, F234A L235A, V domains shown) VH: QVQLVQSGAEVKKPGSSVKVSCKASGYAFTSFLIEWVRQAPGQGLEWMGTSNPRTGRTKYKSKFRGRVTITADKSTSTAYMELSSLRSEDTAVYYCAREFFDYWGQGTTVTVSS VL: DIQMTQSPSSLSASVGDRVTITCRASKSISKYTAWYQQKPGKAPKLLIYAGSKRHWGVPSRFSGSGSGTDFTLTISSLQPEDFATYYCQQHNEYPYTFGGGTKVEIKR | – |
